The values below are quoted from earlier work in article PMC8880779 (International Journal of Molecular Sciences, 2022).

In one data set the test system is cell-based AD model. More on the design: method as in PMID 23519124.
Another data set has as its system mouse model of AD. More on the design: method as in PMID 29164613.

B1: CaM-like skin protein: present at concentrations ranging between 3 and 6 nM in the human cerebrospinal fluid (protein, UniProt Q9NZT1 2-146, looked up)
Calmodulin-like protein 5: AGELTPEEEAQYKKAFSAVDTDGNGTINAQELGAALKATGKNLSEAQLRKLISEVDSDGDGEISFQEFLTAAKKARAGLEDLQVAFRAFDQDGDGHITVDELRRAMAGLGQPLPQEELDAMIREADVDQDGRVNYEEFARMLAQE
For B1, the “inhibition of neuronal death” value in the data set with cell-based AD model was “inhibits neuronal death in a cell-based AD model”. Moreover, the “protection against spatial learning impairment” value in the data set with mouse model of AD is “affords efficient protection against spatial learning impairment”.
